Reference: patent publication US20170305994A1

Target: T1, human DR3 (full length, on cells) (human) (UniProt Q93038)
T1 sequence: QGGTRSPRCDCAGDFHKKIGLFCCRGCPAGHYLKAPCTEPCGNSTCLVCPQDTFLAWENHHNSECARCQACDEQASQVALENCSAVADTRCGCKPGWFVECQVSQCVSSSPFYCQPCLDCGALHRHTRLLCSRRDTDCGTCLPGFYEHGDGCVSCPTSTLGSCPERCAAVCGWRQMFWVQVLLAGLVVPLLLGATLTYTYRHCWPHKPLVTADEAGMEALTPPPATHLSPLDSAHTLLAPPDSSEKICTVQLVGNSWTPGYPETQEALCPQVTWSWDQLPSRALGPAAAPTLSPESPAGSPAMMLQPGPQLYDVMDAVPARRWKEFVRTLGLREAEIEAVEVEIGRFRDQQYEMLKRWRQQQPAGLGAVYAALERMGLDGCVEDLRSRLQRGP
Test: cell-based or functional assay

fold response, DR3 reporter, 40 ng/ml TL1A alone: 32.8 fold
B1: TL1A (R&D Systems) (ligand, UniProt O95150 72-251, looked up)
chain: LKGQEFAPSHQQVYAPLRADGDKPRAHLTVVRQTPTQHFKNQFPALHWEHELGLAFTKNRMNYTNKFLLIPESGDYFIYSQVTFRGMTSECSEIRQAGRPNKPDSITVVITKVTDSYPEPTQLLMGTKSVCEVGSNWFQPIYLGAMFSLQEGDKLMVNVSDISLVDYTKEDKTFFGAFLL
